Source: IntAct's records for PubMed 18511562

B1: Charged multivesicular body protein 4a (Homo sapiens), Q9BY43 (parent)
chain: MSGLGRLFGKGKKEKGPTPEEAIQKLKETEKILIKKQEFLEQKIQQELQTAKKYGTKNKRAALQALRRKKRFEQQLAQTDGTLSTLEFQREAIENATTNAEVLRTMELAAQSMKKAYQDMDIDKVDELMTDITEQQEVAQQISDAISRPMGFGDDVDEDELLEELEELEQEELAQELLNVGDKEEEPSVKLPSVPSTHLPAGPAPKVDEDEEALKQLAEWVS

Variants of: B1
Conditions: with pdc6i_human PDCD6IP

Variant	effect of a mutation on the interaction
MSGLGRLFGKGKKEKGPTPEEAIQKLKETEKILIKKQEFLEQKIQQELQTAKKYGTKNKRAALQALRRKKRFEQQLAQTDGTLSTLEFQREAIENATTNAEVLRTMELAAQSMKKAYQDMDIDKVDELMTDITEQQEVAQQISDAISRPMGFGDDVDEDELLEELEELEQEELAQELLNVGDKEEEPSVKLPSVPSTHLPAGPAPKVDEDEEALKQLAEAVS [W220A]	disrupting interaction
MSGLGRLFGKGKKEKGPTPEEAIQKLKETEKILIKKQEFLEQKIQQELQTAKKYGTKNKRAALQALRRKKRFEQQLAQTDGTLSTLEFQREAIENATTNAEVLRTMELAAQSMKKAYQDMDIDKVDELMTDITEQQEVAQQISDAISRPMGFGDDVDEDELLEELEELEQEELAQELLNVGDKEEEPSVKLPSVPSTHLPAGPAPKVDEDEEAAKQLAEWVS [L214A]	disrupting interaction
MSGLGRLFGKGKKEKGPTPEEAIQKLKETEKILIKKQEFLEQKIQQELQTAKKYGTKNKRAALQALRRKKRFEQQLAQTDGTLSTLEFQREAIENATTNAEVLRTMELAAQSMKKAYQDMDIDKVDELMTDITEQQEVAQQISDAISRPMGFGDDVDEDELLEELEELEQEELAQELLNVGDKEEEPSVKLPSVPSTHLPAGPAPKVDEDEEALKQAAEWVS [L217A]	disrupting interaction
